# B1: mCherry tagged USP5-K113R mutant (enzyme, human, UniProt P45974-1 1-858, looked up)
# chain: MAELSEEALLSVLPTIRVPKAGDRVHKDECAFSFDTPESEGGLYICMNTFLGFGKQYVERHFNKTGQRVYLHLRRTRRPKEEDPATGTGDPPRKKPTRLAIGVEGGFDLSEERFELDEDVKIVILPDYLEIARDGLGGLPDIVRDRVTSAVEALLSADSASRKQEVQAWDGEVRQVSKHAFSLKQLDNPARIPPCGWKCSKCDMRENLWLNLTDGSILCGRRYFDGSGGNNHAVEHYRETGYPLAVKLGTITPDGADVYSYDEDDMVLDPSLAEHLSHFGIDMLKMQKTDKTMTELEIDMNQRIGEWELIQESGVPLKPLFGPGYTGIRNLGNSCYLNSVVQVLFSIPDFQRKYVDKLEKIFQNAPTDPTQDFSTQVAKLGHGLLSGEYSKPVPESGDGERVPEQKEVQDGIAPRMFKALIGKGHPEFSTNRQQDAQEFFLHLINMVERNCRSSENPNEVFRFLVEEKIKCLATEKVKYTQRVDYIMQLPVPMDAALNKEELLEYEEKKRQAEEEKMALPELVRAQVPFSSCLEAYGAPEQVDDFWSTALQAKSVAVKTTRFASFPDYLVIQIKKFTFGLDWVPKKLDVSIEMPEELDISQLRGTGLQPGEEELPDIAPPLVTPDEPKGSLGFYGNEDEDSFCSPHFSSPTSPMLDESVIIQLVEMGFPMDACRKAVYYTGNSGAEAAMNWVMSHMDDPDFANPLILPGSSGPGSTSAAADPPPEDCVTTIVSMGFSRDQALKALRATNNSLERAVDWIFSHIDDLDAEAAMDISEGRSAADSISESVPVGPKVRDGPGKYQLFAFISHMGTSTMCGHYVCHIKKEGRWVIYNDQKVCASEKPPKDLGYIYFYQRVAS
# notes: Homo sapiens ubiquitin specific peptidase 5 (USP5), open reading frame of GenBank NM_001098536 in pcDNA3.1, point mutant made by PCR; also called SUMO-resistant USP5-K113R; SUMO2/3 resistant USP5-K113R mutant; source: tsA-201 cells, transfected (lipofectamine 2000), in lysate; not shown: mCherry, N-terminal, kept
# Target: T1, Cav3.2-GFP tagged calcium channel (human, UniProt O95180 1-2353)
# T1 construct: also called Cav3.2 T-type calcium channel; source: tsA-201 cells, transfected (lipofectamine 2000), in lysate; not shown: GFP, C-terminal, kept
# T1 sequence (O95180 whole entry): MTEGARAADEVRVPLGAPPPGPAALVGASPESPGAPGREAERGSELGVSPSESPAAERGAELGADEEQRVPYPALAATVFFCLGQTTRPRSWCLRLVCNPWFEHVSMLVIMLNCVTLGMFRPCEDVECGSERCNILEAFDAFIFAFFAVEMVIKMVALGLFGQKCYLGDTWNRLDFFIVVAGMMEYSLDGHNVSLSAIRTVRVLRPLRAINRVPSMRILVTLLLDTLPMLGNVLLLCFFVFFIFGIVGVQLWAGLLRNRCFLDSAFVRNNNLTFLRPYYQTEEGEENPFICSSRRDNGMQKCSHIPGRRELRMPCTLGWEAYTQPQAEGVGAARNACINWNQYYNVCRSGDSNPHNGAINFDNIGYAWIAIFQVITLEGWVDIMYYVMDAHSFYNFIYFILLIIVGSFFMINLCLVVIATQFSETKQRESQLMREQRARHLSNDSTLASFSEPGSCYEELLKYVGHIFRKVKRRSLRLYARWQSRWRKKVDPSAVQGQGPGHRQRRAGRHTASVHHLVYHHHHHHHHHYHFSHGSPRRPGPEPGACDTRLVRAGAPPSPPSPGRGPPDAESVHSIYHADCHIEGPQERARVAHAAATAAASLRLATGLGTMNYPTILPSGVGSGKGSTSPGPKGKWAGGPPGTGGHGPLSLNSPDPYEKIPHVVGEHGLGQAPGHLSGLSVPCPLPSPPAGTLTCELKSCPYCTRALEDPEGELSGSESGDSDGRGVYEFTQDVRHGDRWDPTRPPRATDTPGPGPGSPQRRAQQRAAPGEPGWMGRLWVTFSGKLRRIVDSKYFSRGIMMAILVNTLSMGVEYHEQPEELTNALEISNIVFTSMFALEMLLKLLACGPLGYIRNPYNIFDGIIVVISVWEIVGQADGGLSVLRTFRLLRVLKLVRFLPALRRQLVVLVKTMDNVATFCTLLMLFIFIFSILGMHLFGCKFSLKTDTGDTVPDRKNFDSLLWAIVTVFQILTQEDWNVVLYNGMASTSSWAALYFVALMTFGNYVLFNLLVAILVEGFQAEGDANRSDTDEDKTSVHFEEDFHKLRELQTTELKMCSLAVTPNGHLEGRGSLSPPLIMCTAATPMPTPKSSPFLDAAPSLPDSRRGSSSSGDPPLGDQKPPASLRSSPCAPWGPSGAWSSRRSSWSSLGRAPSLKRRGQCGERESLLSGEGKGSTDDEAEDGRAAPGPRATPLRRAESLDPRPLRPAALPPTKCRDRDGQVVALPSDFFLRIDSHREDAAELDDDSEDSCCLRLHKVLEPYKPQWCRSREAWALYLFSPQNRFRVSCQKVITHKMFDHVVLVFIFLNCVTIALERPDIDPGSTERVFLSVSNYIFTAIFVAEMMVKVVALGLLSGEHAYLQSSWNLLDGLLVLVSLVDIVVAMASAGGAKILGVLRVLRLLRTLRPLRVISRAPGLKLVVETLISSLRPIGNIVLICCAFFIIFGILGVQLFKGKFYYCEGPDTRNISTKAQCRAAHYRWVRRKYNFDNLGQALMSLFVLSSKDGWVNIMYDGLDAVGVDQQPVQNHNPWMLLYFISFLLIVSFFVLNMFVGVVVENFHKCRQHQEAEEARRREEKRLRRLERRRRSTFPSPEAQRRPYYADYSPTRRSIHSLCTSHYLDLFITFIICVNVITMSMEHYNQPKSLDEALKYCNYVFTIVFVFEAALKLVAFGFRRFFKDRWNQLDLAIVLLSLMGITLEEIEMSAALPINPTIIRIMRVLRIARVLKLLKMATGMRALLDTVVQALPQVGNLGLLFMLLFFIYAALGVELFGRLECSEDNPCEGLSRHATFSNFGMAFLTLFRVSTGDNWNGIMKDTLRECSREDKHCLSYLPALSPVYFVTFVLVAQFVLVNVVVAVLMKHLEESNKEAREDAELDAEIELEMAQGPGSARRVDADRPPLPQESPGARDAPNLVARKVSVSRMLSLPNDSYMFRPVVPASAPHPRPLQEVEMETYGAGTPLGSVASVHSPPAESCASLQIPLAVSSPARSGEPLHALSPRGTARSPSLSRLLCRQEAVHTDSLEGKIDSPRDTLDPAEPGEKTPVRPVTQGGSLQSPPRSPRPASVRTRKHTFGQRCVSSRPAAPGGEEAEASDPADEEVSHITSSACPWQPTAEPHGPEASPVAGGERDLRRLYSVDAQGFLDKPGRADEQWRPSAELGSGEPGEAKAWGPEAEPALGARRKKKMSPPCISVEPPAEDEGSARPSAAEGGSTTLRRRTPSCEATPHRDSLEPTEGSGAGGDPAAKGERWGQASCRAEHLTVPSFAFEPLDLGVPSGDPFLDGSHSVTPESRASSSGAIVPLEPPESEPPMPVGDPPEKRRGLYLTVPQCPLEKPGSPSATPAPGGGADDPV
# Assay: co-IP; tsA-201 cells co-expressing Cav3.2-GFP and mCherry-USP5 (WT or K113R); lysed in modified RIPA buffer (50 mM Tris, 100 mM NaCl, 0.2% Triton X-100, 0.2% NP-40, 10 mM EDTA, pH 7.5); Cav3.2-GFP precipitated with anti-GFP antibody and Protein G/A beads overnight at 4 °C; blot probed with mCherry antibody; densitometry
# Details: partners not purified
binder,measurement,value
B1,fold change of co-precipitated amount against USP5-WT,~2.2 fold
